Assay results reported in the supplement of paper PMC12764529.
± gives the half width of the 95% confidence interval.

Experiment: folding stability dG unfold (combined trypsin and chymotrypsin); higher = more stable
How it was run: (§1)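 How resistant each design was to proteolysis was captured as K50, inferred by Bayesian fitting of sequencing counts. Unfolding free energy was then derived relative to a sequence-predicted unfolded-state K50 and a shared folded-state K50, per protease or combined. Digestion used trypsin and chymotrypsin at 11 threefold-diluted concentrations plus a no-protease condition, on mini-proteins under 80 residues without cysteine in a PA-tagged cDNA display construct. Designs were kept only when AlphaFold2 dimer inter-PAE was above 15.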

Row | Sequence | folding stability dG unfold
1 | SAGGSAGGSMTLVLEVDSVEDALAAVEALLPPGYRVTIEVEERGGRLLVTITIEPAPAPPPEESAGGSAGGS [r12_195_TrROS_Hall] | 3.16 ± 0.071 kcal/mol
2 | SAGGGSSVLSETVSVDPNNVTTTTTTYKAGDTTSTTTTTTTTTPPVPNLPLPPPPPVSPEAIALGLLLSAGG [r13_760_JUSTAS] | 0.481 ± 0.059 kcal/mol
3 | SAGELELELELEFELEDGYRVEVRLRLRVRPDGSVRMELEVRIEPLPPPPPVRVVVVREDDPEALRALSAGG [r19_12_TrROS_Hall] | 3.6 ± 0.61 kcal/mol
4 | SAGGSATIEEKIRNIAKEQGFPVTDVQVRRTPGKVYIMFQAKDPRMYYIEIDNDKIKIMPAEDIKPSAGGSA [r15_901_TrROS] | 1.36 ± 0.06 kcal/mol
5 | SAGGSAGGSAGSIVLTKTEILPGPENRPIIKTTIYKPPGPITITYPGGDPSKLVIETNSGSAGGSAGGSAGG [r17_64_JUSTAS] | 0.0213 ± 0.28 kcal/mol
6 | SAGGSAGGMVTIASITFEEDPEGGITVTVYLPSNGKTITVPVPADTPEAEARARAEAAARAYAASAGGSAGG [r6_628_JUSTAS] | 1.28 ± 0.15 kcal/mol
7 | SASPSETTTYTVELTSTDPSLTPEDLAERAREEFEAALPPGTRVEVEVVSVTPIPETGTTRYTIRITVRRSA [r9_706_JUSTAS] | 4.55 ± 0.027 kcal/mol
8 | SAGGSAGGSAGGKTYTAEELRSLPPGAKITLADGKVIEVSIEQLEKEIKPGDTVRIERVPSAGGSAGGSAGG [r7_643_TrROS_Hall] | 0.172 ± 0.09 kcal/mol
9 | SAGGSAGGSAGPDKPIYVMIKFEHPGRKYTHSFEFDSPEDIEEVLDRLPPGYEIKEVEIFSAGGSAGGSAGG [r17_410_TrROS] | 0.482 ± 0.2 kcal/mol
10 | SAGGSAGGSKTITLSAEELEKMSPEERKKLAELAEKLGAKIEVKDGKVTITIEGLTPEELKALSAGGSAGGS [r12_945_TrROS_Hall] | 3.06 ± 0.25 kcal/mol
11 | SAGGSAGGSAGGMVTTKTVVTFDPSGYITTTETIKVVGTDELLTKTSVTPVEPVPPLLSSAGGSAGGSAGGS [r10_928_JUSTAS] | 0.828 ± 0.1 kcal/mol
12 | SAGGSYTVEELPPGGILRITFTVPKSRPAEVPLELKAPDGTPVDVESYSITPVGDTNVITYTIKVPLSAGGS [r16_499_JUSTAS] | 1.85 ± 0.11 kcal/mol
13 | SMTIERHPDKLTVRVPAAFSTVPEVVRFLKELGFELPPGVKDVRVEDVEPGARVVRVTVHFDDPEALERLSA [r9_820_TrMRF] | 1.81 ± 0.031 kcal/mol
14 | SAGGSAGGSAGKKIKVKIEVVYTDEDGNKHKVEMEKEIELKPGDKITLPPEAITRVEILPSAGGSAGGSAGG [r11_664_TrROS_Hall] | 1.57 ± 0.19 kcal/mol
15 | SAGMEVKVETVTIEIEVDGKKIEIKVVRVEVRNEDGSIYEFTFIEITVPEDVSEEELRKLLEELGLEPESAG [r5_486_TrROS_Hall] | 3.77 ± 0.29 kcal/mol
16 | SAGGHHMTIETFEEPDKLTVVVDGDDPEATREYLLQKVKEESSRKPVKVTFTEDPNGKLTITFDLKEESAGG [r13_158_JUSTAS] | -0.17 ± 0.34 kcal/mol
17 | SAEVETVTLELELPEDGYRVTITVTYNKETGEVTVEIRIINPNGEEKTITIKVKSLEEALKKLEFKLLPSAG [r14_749_TrROS_Hall] | 2.36 ± 0.13 kcal/mol
18 | ADFRVTEESPEGVVTQTTTVALPDGTSRTLTYSYSKDASLTSVTVSYTPDSVTTTTTPVTPVPPGSPELAGS [r1_53_JUSTAS] | 0.0981 ± 0.13 kcal/mol
19 | SAGGSAGGSSKTFKDPDGWTITVEPLDGGVKVEIYWPDGQRQEHLIPPGEPIKIDPNGWYIEISAGGSAGGS [r12_281_TrROS] | 1.69 ± 0.19 kcal/mol
20 | SAGGSAGGMTLKIKVAPGAVIRIYNKDGELIEEIEVEEGEEVEIEIELPEEDLENLRIEILPAPSAGGSAGG [r6_471_TrROS_Hall] | 4.42 ± 0.25 kcal/mol
21 | SAGGSAGGMKTITIELPPGPVRIRVRLAATGEEVTVEVDAETPTVTITIPEEGAEIVEIEIEPVSAGGSAGG [r6_977_TrROS_Hall] | 2.59 ± 0.18 kcal/mol

Row | Sequence | folding stability dG unfold
22 | SAGGSAGGSAGGPVRLLVLEVPVENVEEVVRRLEALGSVRPVRVERLPGDRYRVLVVSPLSAGGSAGGSAGG [r7_589_TrMRF] | 1.46 ± 0.056 kcal/mol
23 | SAGGSAGGSAGKIWIYNPENGWIFEISIQPHPMPNDDGEPQWMFSIDVEVYPPGKPGQPISAGGSAGGSAGG [r11_531_TrROS] | 3.59 ± 0.065 kcal/mol
24 | SAGGSAGGDAKTFEVEGMTVFVDPETGLAVAEFPDGYLALGRIEVFGPGVAKVDLEIFPLPPGLSAGGSAGG [r6_670_TrMRF] | 1.61 ± 0.13 kcal/mol
25 | SAGGSAGGSAGGPKVIEITNKDGSTFRLVEVDGELYLYNEKTGKVVKLPPGAKITIKKPSAGGSAGGSAGGS [r10_637_TrROS_Hall] | 2.34 ± 0.059 kcal/mol
26 | SAGGIVEEAIKKLFESGIPLSEEEIKEIIEKAIKEENEKKGKKIEKIEIGEIKFNPETGYAPIKIKASAGGS [r16_365_TrMRF] | 0.856 ± 0.83 kcal/mol
27 | SAGGSAGGSAGKRRIYILGMDTVQVAEYLRDTGPDIKVEVFNPGQPMEEFQDNYDIVIFVSAGGSAGGSAGG [r17_225_TrROS] | 2.04 ± 0.16 kcal/mol
28 | SAGGSAGGSAGYLELKISFFDPDGQILASITIWIEIVIPPPPKMEYERDPEDGNNKWEHDSAGGSAGGSAGG [r17_348_TrROS] | 2.26 ± 0.17 kcal/mol
29 | SAGGSAGGSADGWVFLVGADVEVEPVPASLLNVPRSVPGEENPYVVKLKEVSFLLVPAKELSAGGSAGGSAG [r3_488_TrMRF] | 0.185 ± 0.16 kcal/mol
30 | MKEITVTLPVPEEVLAAIRAGKPLPLEEIKERVKEEIAKRLGYKNVTIKSVKVEKLPDGSLVIKVKVEFLPS [r1_290_JUSTAS] | 4.15 ± 0.087 kcal/mol
31 | SAGEKFEPVEEKELTLKITLKDKDGNEKEVEIKVKVEVVKNPDGTLTVRAEITFEDGTKIELELEIKLPSAG [r5_57_TrROS_Hall] | 3.11 ± 0.33 kcal/mol
32 | SAGGSAGGSAGSSMTTVTVTITDTGSGKTTTTELDVPVSEVQAVIDELSPSPTLTITVVQSAGGSAGGSAGG [r17_50_JUSTAS] | 1.64 ± 0.043 kcal/mol
33 | SAGGSAGGSAGKPKTVEIEVTNEDGSKYKAKVVEVDEEKGYVLIKITNPDGSEQTILIKLSAGGSAGGSAGG [r11_742_TrROS_Hall] | 2.6 ± 0.1 kcal/mol
34 | SANPIPLEKANITVSYTSPDGLVVTANITSVTYDPSTGKYTFTFTGTLTDPSTGTTTPVSFTVSTVTLSSAG [r14_825_JUSTAS] | 3.79 ± 0.13 kcal/mol
35 | SAGGGMQAVSPVKTETKTSPDGTTTTTTTTRYPDGTVVVPVTETSPTGGAKKVATTTVSLGPPSPALASAGG [r13_494_JUSTAS] | 0.599 ± 0.093 kcal/mol
36 | SAGGSAGGSAGGGPDAVRQFPPPVNLSVEVTSYTSPSSSLSNGKPEKSTFTTLNPTAGVSAGGSAGGSAGGS [r10_877_JUSTAS] | 0.139 ± 0.11 kcal/mol
37 | SAGGSAGGSPWKKVKFKFMFPFPNYYVRISIEIWVNPGDNEIMIEMSIEIFPIPPGDNKAFKDSAGGSAGGS [r12_885_TrROS] | 3.31 ± 0.36 kcal/mol
38 | SMPVTITRDFDIPLATLSVEEVKAAIEEALKAEGLNVVEPKLDEKLVKELEEAPPSSTLPVKVTVLVEPASA [r9_1163_JUSTAS] | 0.62 ± 0.15 kcal/mol
39 | SAGGSAVERLRELLKELGVEVTVERKDGKVYIRVEASPEKREKLAEALRELFGKDIEIEVLEEGEEPSAGGS [r16_514_TrROS_Hall] | 3.49 ± 0.08 kcal/mol
40 | SAGGSAMTPEEARARAEAIAEELAAEARAAGRAAEVTVEVTELPPELYRFTITFPGRTREVLLPVESAGGSA [r15_432_JUSTAS] | -0.16 ± 0.13 kcal/mol
41 | SAGGSAGGKIKLDGKEIVIVMSKEEKEKIAKELKEKFPNVKIKVVEGMSEEEAAKKADLVIVFDSAGGSAGG [r6_679_TrROS_Hall] | -0.269 ± 0.39 kcal/mol

Experiment: folding stability dG unfold from trypsin proteolysis; higher = more stable
How it was run: as §1

Row | Sequence | folding stability dG unfold
42 | SAGGSAGGSMTLVLEVDSVEDALAAVEALLPPGYRVTIEVEERGGRLLVTITIEPAPAPPPEESAGGSAGGS [r12_195_TrROS_Hall] | 1.92 ± 0.083 kcal/mol
43 | SAGGGSSVLSETVSVDPNNVTTTTTTYKAGDTTSTTTTTTTTTPPVPNLPLPPPPPVSPEAIALGLLLSAGG [r13_760_JUSTAS] | 0.648 ± 0.052 kcal/mol
44 | SAGELELELELEFELEDGYRVEVRLRLRVRPDGSVRMELEVRIEPLPPPPPVRVVVVREDDPEALRALSAGG [r19_12_TrROS_Hall] | 2.73 ± 0.1 kcal/mol
45 | SAGGSATIEEKIRNIAKEQGFPVTDVQVRRTPGKVYIMFQAKDPRMYYIEIDNDKIKIMPAEDIKPSAGGSA [r15_901_TrROS] | 1.14 ± 0.027 kcal/mol
46 | SAGGSAGGSAGSIVLTKTEILPGPENRPIIKTTIYKPPGPITITYPGGDPSKLVIETNSGSAGGSAGGSAGG [r17_64_JUSTAS] | 0.247 ± 0.032 kcal/mol
47 | SAGGSAGGMVTIASITFEEDPEGGITVTVYLPSNGKTITVPVPADTPEAEARARAEAAARAYAASAGGSAGG [r6_628_JUSTAS] | 0.894 ± 0.028 kcal/mol
48 | SASPSETTTYTVELTSTDPSLTPEDLAERAREEFEAALPPGTRVEVEVVSVTPIPETGTTRYTIRITVRRSA [r9_706_JUSTAS] | 5.18 ± 0.1 kcal/mol
49 | SAGGSAGGSAGGKTYTAEELRSLPPGAKITLADGKVIEVSIEQLEKEIKPGDTVRIERVPSAGGSAGGSAGG [r7_643_TrROS_Hall] | 0.542 ± 0.043 kcal/mol
50 | SAGGSAGGSAGPDKPIYVMIKFEHPGRKYTHSFEFDSPEDIEEVLDRLPPGYEIKEVEIFSAGGSAGGSAGG [r17_410_TrROS] | 0.0221 ± 0.1 kcal/mol
51 | SAGGSAGGSKTITLSAEELEKMSPEERKKLAELAEKLGAKIEVKDGKVTITIEGLTPEELKALSAGGSAGGS [r12_945_TrROS_Hall] | 3.84 ± 0.25 kcal/mol
52 | SAGGSAGGSAGGMVTTKTVVTFDPSGYITTTETIKVVGTDELLTKTSVTPVEPVPPLLSSAGGSAGGSAGGS [r10_928_JUSTAS] | -0.179 ± 0.2 kcal/mol
53 | SAGGSYTVEELPPGGILRITFTVPKSRPAEVPLELKAPDGTPVDVESYSITPVGDTNVITYTIKVPLSAGGS [r16_499_JUSTAS] | 1.57 ± 0.049 kcal/mol
54 | SMTIERHPDKLTVRVPAAFSTVPEVVRFLKELGFELPPGVKDVRVEDVEPGARVVRVTVHFDDPEALERLSA [r9_820_TrMRF] | 1.97 ± 0.024 kcal/mol
55 | SAGGSAGGSAGKKIKVKIEVVYTDEDGNKHKVEMEKEIELKPGDKITLPPEAITRVEILPSAGGSAGGSAGG [r11_664_TrROS_Hall] | 0.832 ± 0.17 kcal/mol
56 | SAGMEVKVETVTIEIEVDGKKIEIKVVRVEVRNEDGSIYEFTFIEITVPEDVSEEELRKLLEELGLEPESAG [r5_486_TrROS_Hall] | 2.64 ± 0.12 kcal/mol
57 | SAGGHHMTIETFEEPDKLTVVVDGDDPEATREYLLQKVKEESSRKPVKVTFTEDPNGKLTITFDLKEESAGG [r13_158_JUSTAS] | -0.568 ± 0.26 kcal/mol
58 | SAEVETVTLELELPEDGYRVTITVTYNKETGEVTVEIRIINPNGEEKTITIKVKSLEEALKKLEFKLLPSAG [r14_749_TrROS_Hall] | 2.13 ± 0.056 kcal/mol
59 | ADFRVTEESPEGVVTQTTTVALPDGTSRTLTYSYSKDASLTSVTVSYTPDSVTTTTTPVTPVPPGSPELAGS [r1_53_JUSTAS] | -0.411 ± 0.17 kcal/mol
60 | SAGGSAGGSSKTFKDPDGWTITVEPLDGGVKVEIYWPDGQRQEHLIPPGEPIKIDPNGWYIEISAGGSAGGS [r12_281_TrROS] | 0.5 ± 0.069 kcal/mol
61 | SAGGSAGGMTLKIKVAPGAVIRIYNKDGELIEEIEVEEGEEVEIEIELPEEDLENLRIEILPAPSAGGSAGG [r6_471_TrROS_Hall] | 3.96 ± 0.27 kcal/mol
